Measured values: patent publication US6835382B2, “Ii peptide therapeutics to enhance antigen presentation” (University of Massachusetts, priority 1996, dated 2004)

How the values were obtained:
HLA-DR1 molecules [1] = molecular target: T1, HLA-DR1 molecules (Homo sapiens, UniProt P01903+P01911, A100R/D57E/F55L/F60I/F76Y/I96L/L162R/M171V/P40L/Q125E/R42F/V115G/Y59C); experiment: binding of biotin-labeled hMBP(90-102) to "empty" HLA-DR1 (assay IV); conditions: Table 39; AE101 series compound 64 μM; biotin-labeled hMBP(90-102) 50 μM, 37° C., 1 h; no enhancement = 1
T1 construct: The HLA-DR alpha gene was truncated after Asn^192 to remove transmembranal and cytoplasmic regions from the protein product; A gene coding for the HLA-DR1 beta chain was truncated after position Lys^198, again to delete the transmembranal region; made in house; host or cells: insect cell line printed as HS / H5 (Invitrogen), co-infected with two baculoviruses; concentrated culture supernatant captured on 12CA5 antibody

HLA-DR1 molecules [2] = experiment: exchange of biotinylated hMBP(90-102) into antigenic peptide-loaded HLA-DR1 (assay III); format: binding, human; conditions: Table 38; HLA-DR1 preloaded with unlabeled hMBP(90-102) 50 μM; exchange with biotin-labeled hMBP(90-102) 50 μM, 37° C., 1 h; fraction of positive control o.d.; no enhancement = 0.08
HLA-DR1 molecules [3] = experiment: release of biotin-labeled hMBP(90-102) from HLA-DR1 without unlabeled antigenic peptide (assay I); format: binding, human; conditions: for Relative Release: Table 36, AE101 series compound 64 μM, fraction of o.d. of positive control (PBS only = 1.0; negative control = 0.0); for release of biotin-labeled hMBP(90-102) from HLA-DR1 without second unlabeled antigenic peptide, in words: Table 36 (compounds tested at 64 μM)
[4] = system: murine E^k MHC class II allele; experiment: simultaneous assay, E^k allele (CH27 APC, TPc9.1 T hybridoma, THMCC82-103 or PGCC81-104); format: cell-based; conditions: Table 1, 0.075 μM THMCC82-103, supernatant 1:2
Description: (§1) Examples 1-4 (Tables 1-18) will be briefly considered in order to establish the concept of tolerance discussed above. These examples describe experimental results observed in the so-called “simultaneous” assay. In the simultaneous assay four principle components are cultured together for a 24 hour period. The components of this culture, which are added simultaneously, are: (a) an antigenic peptide characterized by the ability to bind specifically into the antigenic peptide binding groove of an MHC class II molecule, (b) mitomycin C-treated, MHC class II-positive antigen presenting cells (APC) bearing the MHC class II allele required for binding of the specific antigenic peptide, and presentation of the specific antigenic peptide to the antigenic peptide-specific T cell hybridoma, (c) an effector compound of the present invention, and (d) an MHC class II allele-restricted T cell hybridoma specific for the antigenic peptide and the MHC class II allele restricting its presentation. Following incubation of this primary culture, an aliquot of its supernatant is transferred into a second culture well for incubation with an interleukin-dependent lymphoblastoid cell line. The degree of stimulation of that second, indicator cell by the interleukins which had been released from the activated T cell hybridoma in the primary culture is measured by quantitating tritiated thymidine deoxyribose {[^3H]TdR} uptake into the DNA of the HT-2 indicator cells of that second culture.
(§2) In the “simultaneous assay” the four components of the assay are cultured together for a 24 h period. The components of this primary culture, added at the same time or simultaneously, are: (a) the antigenic peptide, (b) mitomycin C-treated, MHC class II-positive antigen presenting cells (APC) with the MHC class II allele required for binding of the specific antigenic peptide and its presentation to the antigenic peptide-specific T cell hybridoma, (c) an AE101 series effector peptide, and (d) MHC class II allele-restricted T cell hybridoma specific for the antigenic peptide and the MHC class II allele restricting its presentation. At the end of the incubation of this primary culture, an aliquot of its supernatant is transferred into a second culture well for incubation with an interleukin-dependent lymphoblastoid cell line. The degree of stimulation of that second, indicator cell by the interleukins which had been released from the activated T cell hybridoma in the primary culture is measured by quantitating tritiated thymidine deoxyribose {[^3H]TdR} uptake into the DNA of the HT-2 indicator cells of that second culture.
(§3) For these various assays, the following antigenic peptides were used: HEL11-25, hen egg lysozyme 11-25, AMKRHGLDNYRGYSL(A^d) (SEQ ID NO:5); HEL46-61, hen egg lysozyme 46-61, NTDGSTDYGILQINSR(Ak) (SEQ ID NO:6); HEL106-116, hen egg lysozyme 106-116, NAWVAWRNRCK (E^d) (SEQ ID NO:7); PGCC81-104, pigeon cytochrome c 81-104, […] (Ek) (SEQ ID NO:8), and THMCC82-103, tobacco hornworm moth cytochrome c 82-103, […] (Ek) (SEQ ID NO:9). AE101 series peptides were obtained from commercial sources. In general, the purity and composition of each peptide was confirmed by HPLC separation and mass spectrometry. The native protein antigens were HEL, hen egg lysozyme, and PGCC, pigeon cytochrome C. They were obtained from commercial sources.
(§4) For the experiments of these Examples, several T cell hybridomas, which are specific for certain antigenic peptides, were used. The TPc9.1 T hybridoma is specific for pigeon cytochrome C 81-104 peptide presented on the murine class II MHC allele E^k. The TPc9.1 hybridoma responds heteroclitically to tobacco hornworm moth cytochrome c 82-103 on E^k. The 3A9 T hybridoma is specific for hen egg lysozyme 46-61 on A^k. The 9.30.B2 hybridoma is specific for hen egg lysozyme 11-25 on A^d, and the G28.C9 hybridoma is specific for hen egg lysozyme 106-116 on E^d. […]

[5] = molecular target: T2, murine E^d MHC class II allele (Mus musculus, UniProt P01904+P01915); experiment: simultaneous assay, E^d allele (A20 APC, G28.C9 T hybridoma, HEL106-116; HT-2 [3H]TdR readout); format: cell-based; design: The A20 and CH27 B cell lymphoma lines express H-2^d and H-2^k alleles, respectively; endogenous in cells; host or cells: A20 B cell lymphoma (mitomycin C-treated or paraformaldehyde-fixed); conditions: Table 1, 0.4 μM HEL106-116, supernatant 1:4
T2 sequence (P01904 26-255): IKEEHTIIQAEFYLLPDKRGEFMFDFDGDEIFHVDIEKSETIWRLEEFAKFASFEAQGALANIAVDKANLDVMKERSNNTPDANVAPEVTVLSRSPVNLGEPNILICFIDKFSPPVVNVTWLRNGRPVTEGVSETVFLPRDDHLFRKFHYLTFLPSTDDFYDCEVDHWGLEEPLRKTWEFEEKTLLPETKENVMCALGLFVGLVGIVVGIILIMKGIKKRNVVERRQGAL
T2 sequence (P01915 27-264 limits assumed): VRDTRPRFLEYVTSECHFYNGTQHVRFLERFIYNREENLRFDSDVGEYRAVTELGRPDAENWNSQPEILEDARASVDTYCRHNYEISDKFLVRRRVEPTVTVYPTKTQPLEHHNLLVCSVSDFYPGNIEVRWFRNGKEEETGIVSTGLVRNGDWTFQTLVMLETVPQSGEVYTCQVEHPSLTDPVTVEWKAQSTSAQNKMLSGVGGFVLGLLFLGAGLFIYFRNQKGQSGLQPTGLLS
Description: as §1, §2, §3, §4

[6] = molecular target: soluble HLA-DR1 (HLA-DR alpha truncated after Asn192 with a C-terminal nine amino acid HA epitope tail; HLA-DR1 beta truncated after Lys198), made in Baculovirus-infected insect cells (human); experiment: exchange ELISA: tethered HLA-DR1 preloaded with unlabeled hMBP(90-102) 50 uM, washed; AE peptide plus biotin-hMBP(90-102) 50 uM, 1 h 37 C; biotin bound as fraction of positive control (overnight loading)
[7] = molecular target: soluble HLA-DR1 (HLA-DR alpha truncated after Asn192 with a C-terminal nine amino acid HA epitope tail; HLA-DR1 beta truncated after Lys198), made in Baculovirus-infected insect cells (human); experiment: release ELISA: soluble HLA-DR1 tethered by 12CA5 and preloaded with biotin-hMBP(90-102); AE peptide 64 uM, 1 h 37 C, no unlabeled peptide; biotin still bound read by avidin-HRP (1.0 = PBS control, 0.0 = no DR1; low value = released)
[8] = molecular target: soluble HLA-DR1 (HLA-DR alpha truncated after Asn192 with a C-terminal nine amino acid HA epitope tail; HLA-DR1 beta truncated after Lys198), made in Baculovirus-infected insect cells (human); experiment: loading ELISA: empty tethered HLA-DR1 with biotin-hMBP(90-102) 50 uM and AE peptide 64 uM, 1 h 37 C; biotin bound read by avidin-HRP
[9] = AE peptide 16 μM (second value)

Q: AE100 (YRMKLPKPPKPVSKMR) was tested. Which “Relative Enhancement” value (HLA-DR1 molecules [1]) did it give?
A: Its value is 3.44.

Q: What about the “Relative Binding” value (HLA-DR1 molecules [2]) of the same molecule?
A: Its value is 0.31.

Q: And the “Relative Release” value (HLA-DR1 molecules [3])?
A: The value was 0.37.

Q: What does the source list for “AE401: The N-terminal portion of AE100 (LRMKLPKPP)”?
A: Relative Enhancement (HLA-DR1 molecules [1]): 4.29; Relative Binding (HLA-DR1 molecules [2]): 0.45; release of biotin-labeled hMBP(90-102) from HLA-DR1 without second unlabeled antigenic peptide, in words (HLA-DR1 molecules [3]): retained capacity to release; Relative Release (HLA-DR1 molecules [3]): 0.16

Q: Which “Relative Enhancement” value (HLA-DR1 molecules [1]) does the source give for AE402 (LRMKLPKPPKPV) here?
A: The value was 0.33.

Q: And the “Relative Binding” value (HLA-DR1 molecules [2])?
A: The value was −0.03.

Q: And the “Relative Release” value (HLA-DR1 molecules [3])?
A: The value was 0.65.

Q: What does the source list for AE403 (MKLPKPPKPV)?
A: Relative Enhancement (HLA-DR1 molecules [1]): 0.47; Relative Binding (HLA-DR1 molecules [2]): 0.40; Relative Release (HLA-DR1 molecules [3]): 0.64

Q: Which results are given for “AE405: comprising residue positions 5 through 12 of AE101 (LPKSAKPV)”?
A: Relative Enhancement (HLA-DR1 molecules [1]): 0.43; Relative Binding (HLA-DR1 molecules [2]): 0.57; release of biotin-labeled hMBP(90-102) from HLA-DR1 without second unlabeled antigenic peptide, in words (HLA-DR1 molecules [3]): sufficient to release antigenic peptide; Relative Release (HLA-DR1 molecules [3]): 0.11

Q: With YRMKLPKSAKPV [AE107] as the molecule, how does the “Times Baseline Response, E^k” value [4, 9] read?
A: Its value is 0.8.

Q: What about the “Times Baseline Response, E^k” value ([4]; AE peptide 64 μM (first value)) of the same molecule?
A: The value was 1.0.

Q: And the “Times Baseline Response, E^d” value [5, 9]?
A: Its value is 4.8.

Q: What about the “Times Baseline Response, E^d” value ([5]; AE peptide 64 μM (first value)) of the same molecule?
A: The value was 21.7.

Q: And the “Relative Enhancement” value (HLA-DR1 molecules [1])?
A: Its value is 2.59.

Q: What about the “Relative Binding” value (HLA-DR1 molecules [2]) of the same molecule?
A: The value was 1.04.

Q: What about the “release of hMBP(90-102) from HLA-DR1” value (HLA-DR1 molecules [3]; AE peptide at 125 nM, additional experiments) of the same molecule?
A: Its value is “completely release”.

Q: And the “release of biotin-labeled hMBP(90-102) from HLA-DR1 without second unlabeled antigenic peptide, in words” value (HLA-DR1 molecules [3])?
A: Its value is “released”.

Q: And the “Relative Release” value (HLA-DR1 molecules [3])?
A: The value was −0.07.

B1: AE100 (peptide)
peptide: YRMKLPKPPKPVSKMR
Q: Which Relative Binding (of biotin-hMBP(90-102) to HLA-DR1) (fraction of positive control o.d.) [6] does the source give for B1 here?
A: The Relative Binding (of biotin-hMBP(90-102) to HLA-DR1) (fraction of positive control o.d.) was 0.31.

Q: What about the Relative Release (fraction of positive control o.d.) [7] of the same molecule?
A: Its Relative Release (fraction of positive control o.d.) is 0.37.

Q: What about the Relative Enhancement (of biotin-hMBP(90-102) binding to empty HLA-DR1) (relative to no AE peptide = 1) [8] of the same molecule?
A: Its Relative Enhancement (of biotin-hMBP(90-102) binding to empty HLA-DR1) (relative to no AE peptide = 1) is 3.44.

B2: AE403 (peptide)
peptide: Ac-MKLPKPPKPV-NH2
Q: For B2, which Relative Binding (of biotin-hMBP(90-102) to HLA-DR1) (fraction of positive control o.d.) [6] is on record?
A: The Relative Binding (of biotin-hMBP(90-102) to HLA-DR1) (fraction of positive control o.d.) was 0.4.

Q: And the Relative Release (fraction of positive control o.d.) [7]?
A: The Relative Release (fraction of positive control o.d.) was 0.64.

Q: What about the Relative Enhancement (of biotin-hMBP(90-102) binding to empty HLA-DR1) (relative to no AE peptide = 1) [8] of the same molecule?
A: Its Relative Enhancement (of biotin-hMBP(90-102) binding to empty HLA-DR1) (relative to no AE peptide = 1) is 0.47.

B3: AE402 (peptide)
peptide: Ac-LRMKLPKPPKPV-NH2
Q: With B3 as the molecule, how does the Relative Binding (of biotin-hMBP(90-102) to HLA-DR1) (fraction of positive control o.d.) [6] read?
A: The Relative Binding (of biotin-hMBP(90-102) to HLA-DR1) (fraction of positive control o.d.) was -0.03.

Q: And the Relative Release (fraction of positive control o.d.) [7]?
A: Its Relative Release (fraction of positive control o.d.) is 0.65.

Q: What about the Relative Enhancement (of biotin-hMBP(90-102) binding to empty HLA-DR1) (relative to no AE peptide = 1) [8] of the same molecule?
A: Its Relative Enhancement (of biotin-hMBP(90-102) binding to empty HLA-DR1) (relative to no AE peptide = 1) is 0.33.

B4: AE405 (peptide)
peptide: Ac-LPKSAKPV-NH2
Q: What does the source list for B4?
A: Relative Binding (of biotin-hMBP(90-102) to HLA-DR1) (fraction of positive control o.d.) [6]: 0.57; Relative Release (fraction of positive control o.d.) [7]: 0.11; Relative Enhancement (of biotin-hMBP(90-102) binding to empty HLA-DR1) (relative to no AE peptide = 1) [8]: 0.43

B5: AE107 (peptide)
peptide: YRMKLPKSAKPV
Q: Which results are given for B5?
A: Relative Binding (of biotin-hMBP(90-102) to HLA-DR1) (fraction of positive control o.d.) [6]: 1.04; Relative Release (fraction of positive control o.d.) [7]: -0.07; Relative Enhancement (of biotin-hMBP(90-102) binding to empty HLA-DR1) (relative to no AE peptide = 1) [8]: 2.59
